System: Bacillus subtilis
Test: cleaved RNA product abundance (RNA/gDNA barcode ratio) relative to median wild-type variant (ratio to wild type); higher = more accumulation of the downstream cleavage product
Summary of the method: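 In LB at 37°C, B. subtilis cultures went from OD600 0.0003 to 0.3. Their chromosomes held barcoded reporter mRNAs, truncated aprE or tetM, with RNase Y cleavage-site windows mutagenized via oligos at a 9% error rate. Cleaved RNA, chosen by gel, was reverse transcribed and barcode-sequenced alongside genomic DNA barcodes with UMI collapsing, giving a per-construct RNA:gDNA ratio scaled to the median construct with the unmutated site. This scaled ratio is termed cleaved product abundance.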

[1] = experiment (reporter, strain, medium): exp 4a: truncated aprE reporter, strain BJT201 with 2% xylose (RNase J1 expressed), cleavage site: cggR-gapA (positions -7 to +36 mutated)
[2] = experiment (reporter, strain, medium): exp 8a: truncated aprE reporter, strain BJT201 with 2% xylose (RNase J1 expressed), cleavage site: glnRA (positions -5 to +31 mutated)
[3] = experiment (reporter, strain, medium): exp 2b: truncated aprE reporter, strain BJT200, cleavage site: cggR-gapA (positions -7 to +36 mutated)
[4] = experiment (reporter, strain, medium): exp 6: tetM reporter, strain 168, cleavage site: cggR-gapA (positions -7 to +36 mutated)

Sequence: ACAGACGAAGGAGCCGCAAAGACGTTATTAAGGGATGAATAATTCCTCAATATAAATATCTCTCACTTATTTAAA
- cleaved RNA product abundance [1]: 0.944

Sequence: CGACATGTCCCGCTTCTTTCATTAATTCGTTAGCAACTGTTTTGCTATATACATTTAGCTTTTAAGAGGAGGAAT
- cleaved RNA product abundance [2]: 1.88

Sequence: ACAGACGAAGGAGCCGCAGAGAAGTTATTAAGGGATTAATAATCCCTCAATATAAATATCTCTCACTTATTTAAA
- cleaved RNA product abundance [1]: 0.696

Sequence: CGACATGTCCCGCTTCTTTCATTAATCCTTTAGCAAATGTTTTGCTATATACATTTACCTTTTAAGAGGAGGAAT
- cleaved RNA product abundance [2]: 0.608

Sequence: ACAGACGAAGGAGCCGCAAAGAAGTTATTACGGGATAAATAATCCCTCAATATAAATATCTCTCACTTATTTAAA
- cleaved RNA product abundance [1]: 0.416

Sequence: ACAGACGAAGGAGCCGCAAAGAAGTTATTAAGGGATGAATAATCCCACAAAATAAATATCTCTCACTTATTTAAA
- cleaved RNA product abundance [1]: 0.256

Sequence: CGACATGTCCCGCTTCTTTCATTAATCCTTTAGCAACTGTATTGCTATATACATTTACCTTTTAAGAGGAGGAAT
- cleaved RNA product abundance [2]: 0.83

Sequence: ACAGACGAAGGAGCCGCAAAGAAGTTATTAAGGGATGCATAATCCCACAATATAAATATCTCTCACTTATTTAAA
- cleaved RNA product abundance [1]: 0.204

Sequence: ACAGACGAAGGAGCCGCAAAGAAGTTATTAAACGATGAATAATCCCTCAATATAAATATCTCTCACTTATTTAAA
- cleaved RNA product abundance [3]: 0.0904
- cleaved RNA product abundance [1]: 0.109

Sequence: CGACATGTCCCGCTTCTTTCATTAATCCGTTAGCAACTGTTTTACTATATAAATTTACCTTTTAAGAGGAGGAAT
- cleaved RNA product abundance [2]: 0.596

Sequence: ACAGACGAAGGAGCCGCAATGAAGATATTAAGGGATGAATAATCCCTCAATATAAATATCTCTCACTTATTTAAA
- cleaved RNA product abundance [1]: 0.667

Sequence: ACAGACGAAGGAGCCGCTAAGAAGTTATTAAGGGATGAATAATCTCTCAATATAAATATCTCTCACTTATTTAAA
- cleaved RNA product abundance [1]: 1.12

Sequence: ACAGACGAAGGAGCCGCAAATAAGTAATTAAGGGATGAATAATCCCTCAATATAAATATCTCTCACTTATTTAAA
- cleaved RNA product abundance [3]: 0.246
- cleaved RNA product abundance [1]: 0.339

Sequence: ACAGACGAAGGAGCCGCACAGATGTTATTAAGGGATGAATAATCCCTCAATATAAATATCTCTCACTTATTTAAA
- cleaved RNA product abundance [1]: 1.11

Sequence: ACAGACGAAGGAGCCGCAAAGAAGTTATTAAGGGATGAATAATCCCTCAAAATAAACATCTCTCACTTATTTAAA
- cleaved RNA product abundance [1]: 0.316

Sequence: ACAGACGAAGGAGCCGCAAAGATGTTATAAAGGGATGAATAATCCCTCAATATAAATATCTCTCACTTATTTAAA
- cleaved RNA product abundance [3]: 0.259
- cleaved RNA product abundance [1]: 0.441

Sequence: ACAGACGAAGGAGCCGCAAAGAAGTTAATAAGGGATGAATAATCCCTCAATATAAAGATCTCTCACTTATTTAAA
- cleaved RNA product abundance [3]: 0.182

Sequence: CGACATGTCCCGCTTCTTTCATTAATCCGTTAGCAACTGTTTTCCTATATATATTTACCTTTTAAGAGGAGGAAT
- cleaved RNA product abundance [2]: 0.505

Sequence: ACAGACGAAGGAGCCGCAAAGAAGTTATTAAAGGATGAATAATCCCTCAATATAAATATCTCTCACTTATTTAAA
- cleaved RNA product abundance [3]: 0.162
- cleaved RNA product abundance [1]: 0.211
- cleaved RNA product abundance [4]: 0.242

Sequence: ACAGACGAAGGAGCCGCAAAGAAGTTATTAAAGGATGAATAATCCCTCAATATTAATATCTCTCACTTATTTAAA
- cleaved RNA product abundance [1]: 0.0494

Sequence: ACAGACGAAGGAGCCGCAAAAAAGTTATTAAGGGATGAAAAATCCCTCAATATAAATATCTCTCACTTATTTAAA
- cleaved RNA product abundance [3]: 0.785
- cleaved RNA product abundance [1]: 0.695

Sequence: ACAGACGAAGGAGCCGCACAGAAGTGATTAAGGGATGAATAATCCCTCAATATAAATATCTCTCACTTATTTAAA
- cleaved RNA product abundance [3]: 0.259
- cleaved RNA product abundance [1]: 0.311

Sequence: ACAGACGAAGGAGCCGCAAAGAAGTAATTAACGGATGAATAATCCCTGAATATAAATATCTCTCACTTATTTAAA
- cleaved RNA product abundance [1]: 0.16

Sequence: CGACATGTCCCGCTTCTTTCATTAATCCGTTAGGAACTGTTTAGCTATATACATTTACCTTTTAAGAGGAGGAAT
- cleaved RNA product abundance [2]: 0.327

Sequence: ACAGACGAAGGAGCCGCAAAGAAGTTATTAACGGATGAATAATCCCTCAATCTAAATATCTCTCACTTATTTAAA
- cleaved RNA product abundance [1]: 0.102

Sequence: ACAGACGAAGGAGCCGCAAAGAAGTTATTAAGGTATGAATAATTCCTCAATATAAATATCTCTCACTTATTTAAA
- cleaved RNA product abundance [3]: 0.0842
- cleaved RNA product abundance [1]: 0.156

Sequence: ACAGACGAAGGAGCCGCAAAGAAGTAATTAAGGTATTAATAATCCCTCAATATAAATATCTCTCACTTATTTAAA
- cleaved RNA product abundance [1]: 0.0968

Sequence: ACAGACGAAGGAGCCGCAAAGAAGGTATTAAGGGATGAATAATCCCTCAATATAAATATCTCTCACTTATTTAAA
- cleaved RNA product abundance [3]: 1.51
- cleaved RNA product abundance [1]: 1.18
- cleaved RNA product abundance [4]: 0.983

Sequence: ACAGACGAAGGAGCCGCAAAGAAGTTATTAACGGATGAATAAACCCTCAATATAAATATCTCTCACTTATTTAAA
- cleaved RNA product abundance [3]: 0.0962
- cleaved RNA product abundance [1]: 0.12

Sequence: ACAGACGAAGGAGCCGCAAAGAAGGTATTAAGGGATGAATAATCCCTCAATATAAATTTCTCTCACTTATTTAAA
- cleaved RNA product abundance [1]: 0.849

Sequence: ACAGACGAAGGAGCCGCAGAGAAGTTATTAATGGATGAATAATCCCTCAATATAAATATCTCTCACTTATTTAAA
- cleaved RNA product abundance [1]: 0.184

Sequence: CGACATGTCCCGCTTCTTTCATTAATCCGTTAACAACTATTTTGCTATATACATTTACCTTTTAAGAGGAGGAAT
- cleaved RNA product abundance [2]: 0.275

Sequence: ACAGACGAAGGAGCCGCAAAGAAGTTATTACGTGATGAATAATCCCTCAATATAAATATCTCTCACTTATTTAAA
- cleaved RNA product abundance [3]: 0.0928
- cleaved RNA product abundance [1]: 0.113

Sequence: CGACATGTCCCGCTTCTTTCATTACTCCGTTAGCAATTGTTTTGCTATATACATTTACCTTTTAAGAGGAGGAAT
- cleaved RNA product abundance [2]: 1.23

Sequence: CGACATGTCCCGCTTCTTTCATTAATCCGTTAGCAACTGTTTGGCTATATATATTTACCTTTTAAGAGGAGGAAT
- cleaved RNA product abundance [2]: 0.546

Sequence: ACAGACGAAGGAGCCGCAAAGAAGTTATTAAGGGATGAATAATCCATCAATATAAATCTCTCTCACTTATTTAAA
- cleaved RNA product abundance [1]: 0.17

Sequence: ACAGACGAAGGAGCCGCAAAGAAGTTTTTAAGGGATCAATAATCCCTCAATATAAATATCTCTCACTTATTTAAA
- cleaved RNA product abundance [1]: 0.289

Sequence: ACAGACGAAGGAGCCGCAAAGAAGTTATTAAGGGATGAAGAATCCCTAAATATAAATATCTCTCACTTATTTAAA
- cleaved RNA product abundance [1]: 0.44

Sequence: CGACATGTCCCGCTTCTTTCATTACTCCGTTAGCAACAGTTTTGCTATATACATTTACCTTTTAAGAGGAGGAAT
- cleaved RNA product abundance [2]: 0.834

Sequence: CGACATGTCCCGCTTCTTTCATTAATCCGTTAACATCTGTTTTGCTATATACATTTACCTTTTAAGAGGAGGAAT
- cleaved RNA product abundance [2]: 0.25

Sequence: CGACATGTCCCGCTTCTTTCATTAATCCGTTAGCAACTGTTTTGCTATATACATATACTTTTTAAGAGGAGGAAT
- cleaved RNA product abundance [2]: 0.975

Sequence: ACAGACGAAGGAGCCGCAAAGAAGTTATAAAGGGATGAATAATCCCTCAATATAAATATCTCTCACTTATTTAAA
- cleaved RNA product abundance [3]: 0.363
- cleaved RNA product abundance [1]: 0.454
- cleaved RNA product abundance [4]: 0.4

Sequence: CGACATGTCCCGCTTCTTTCATTAATCCGTTAGCAACTGTTTTGCTATATACACTTAACTTTTAAGAGGAGGAAT
- cleaved RNA product abundance [2]: 0.785

Sequence: CGACATGTCCCGCTTCTTTCATTAATCCTTTAGCAACTGTTTTGTTATATACATTTACCTTTTAAGAGGAGGAAT
- cleaved RNA product abundance [2]: 0.553

Sequence: ACAGACGAAGGAGCCGCAAAGAAGTTATTATGGAATGAATAATCCCTCAATATAAATATCTCTCACTTATTTAAA
- cleaved RNA product abundance [1]: 0.105

Sequence: ACAGACGAAGGAGCCGCAAAGAAGTTATTAAGGGATGCATAATTCCTCAATATAAATATCTCTCACTTATTTAAA
- cleaved RNA product abundance [1]: 0.559

Sequence: ACAGACGAAGGAGCCGCAAAGAAATTATAAAGGGATGAATAATCCCTCAATATAAATATCTCTCACTTATTTAAA
- cleaved RNA product abundance [3]: 0.215
- cleaved RNA product abundance [1]: 0.342

Sequence: ACAGACGAAGGAGCCGCAAAGAAGTTATTAAGAGATAAATAATCCCTCAATATAAATATCTCTCACTTATTTAAA
- cleaved RNA product abundance [3]: 0.0926
- cleaved RNA product abundance [1]: 0.0932

Sequence: ACAGACGAAGGAGCCGCAAAGAATTTATTAAGGGATGAATAATCCCTCAATATAAATATCTCTCACTTATTTAAA
- cleaved RNA product abundance [3]: 0.775
- cleaved RNA product abundance [1]: 0.743
- cleaved RNA product abundance [4]: 0.623

Sequence: ACAGACGAAGGAGCCGCAAAGAAGTTATTAAGGGATTAATAATCCCTTAATATAAATATCTCTCACTTATTTAAA
- cleaved RNA product abundance [1]: 0.563

Sequence: ACAGACGAAGGAGCCGCAAAGAAGTTATTAAGGGATGAATAATCCACCAATATAAATATCTCTCACTTATTTAAA
- cleaved RNA product abundance [3]: 0.186
- cleaved RNA product abundance [1]: 0.142

Sequence: CGACATGTCCCGCTTCTTTCATTAATCCGTTAGCAACTGTTTTGCTATATACATTTACAATTTAAGAGGAGGAAT
- cleaved RNA product abundance [2]: 1.08

Sequence: ACAGACGAAGGAGCCGCAAAGAAGTTATTAAGGGATGAATAATCCCTCAATATAAATCTCTCTCACTTATTTAAA
- cleaved RNA product abundance [3]: 0.652
- cleaved RNA product abundance [1]: 0.679
- cleaved RNA product abundance [4]: 0.701

Sequence: ACAGACGAAGGAGCCGCAAAGAAGTTATTAAGGGATGAATAATCCCTCCATATAAATTTCTCTCACTTATTTAAA
- cleaved RNA product abundance [1]: 0.23

Sequence: ACAGACGAAGGAGCCGCAAAAAAGTTATTAAGGGATCAATAATCCCTCAATATAAATATCTCTCACTTATTTAAA
- cleaved RNA product abundance [3]: 0.923
- cleaved RNA product abundance [1]: 0.712

Sequence: ACAGACGAAGGAGCCGCAAAGAAGTTATTAAGGGATGAATAATCCGTCATTATAAATATCTCTCACTTATTTAAA
- cleaved RNA product abundance [3]: 0.136

Sequence: ACAGACGAAGGAGCCGCAAAGAAGTTATTAAGGGATGAATAATGCCTCAATATAAAAATCTCTCACTTATTTAAA
- cleaved RNA product abundance [3]: 0.15
- cleaved RNA product abundance [1]: 0.159

Sequence: CGACATGTCCCGCTTCTTTCATTAATTCGTTAGCAACTGTTTTGCTATATACACTTACCTTTTAAGAGGAGGAAT
- cleaved RNA product abundance [2]: 0.629

Sequence: CGACATGTCCCGCTTCTTTCATTATTCCGTTAGCAACTGTTTTGCTATATACATTTTCCTTTTAAGAGGAGGAAT
- cleaved RNA product abundance [2]: 0.792
